Measured values reported in patent publication US20250388936A1, “METHODS AND CELLS FOR THE PRODUCTION OF FLUORINATED COMPOUNDS” (priority 2022, published 2025).

Legend:
[1] = Steady-state fluorination kinetics of purified fluorinases (5′-FDA by HPLC); type: biochemical; details: 50 mM HEPES, pH 7.8, 75 mM KF, varying SAM, 37° C., triplicate
Method: (§1) 96-well activity assays were carried out in 150 μL reactions containing 50 mM HEPES pH 7.8, 75 mM KF, ˜1 μM fluorinase (considering the theoretical molecular mass), and 10, 25, 50, 100, 250, or 500 μM SAM (New England Biolabs). 96-well PCR plates were sealed and incubated for 1 h at 37° C., 5 min at 95° C., and cooled to 10° C. in a thermocycler (Bio-Rad). The plates were then centrifuged for 30 min at 2,500×g and 120 μL of supernatants were transferred to round-bottom 96-well plates (Thermo Scientific), which were sealed with a silicone lid for HPLC analysis. Transhalogenation reactions were carried out in the same way, but using increasing concentrations of 5′-CIDA (5′-chloro-5′-deoxyadenosine) in the presence of 1 mM L-Met.
Steady-state kinetics were performed in the same conditions with slight variations. Triplicate reactions (600 μL final volume) were prepared in 1.5-mL tubes and incubated for 5 min at 37° C. before addition of SAM (1.5625-800 μM), after which 90 μL aliquots were removed at different time-points (2, 5, 10, 15, 20 and 30 minutes), boiled for 5 min at 95° C., and placed on ice. Samples were centrifuged at maximum speed for 10 min at 4° C. before being transferred to 96-well plates for 5′-FDA quantitation by HPLC analysis. Product formation rates for the different substrate concentrations were calculated by least squares linear regression with at least three time-points and fitted to the Michaelis-Menten equation using the Origin software (OriginLab Corporation).
(§2) 5′-FDA was quantified following absorbance at 230 nm using a Zorbax C18 column (3.5 μm 4.6×100 mm, Agilent) connected to a HPLC system (Dionex Ultimate 3000, ThermoFisher) with the following gradient (1 mL/min flow rate): 5-12% solvent B in 1.5 min, 12% solvent B for 1 min, 12-30% solvent B in 2 min, 30-70% B in 1.5 min (solvent A: 0.05% acetic acid in water; solvent B: acetonitrile). A six-point calibration curve (R2>0.99) was prepared with 0.5-50 μM 5′-FDA, which was chemically synthesized as previously described (Calero et al., 2020).

[2] = 96-well end-point (1 h) fluorinase activity assay; type: biochemical; details: purified enzymes, increasing SAM concentrations, 5′-FDA by HPLC
Method: as §1, §2

[3] = End-point (1 h) transhalogenation assay; type: biochemical; details: 5′-FDA production from 5′-CIDA, 1 mM L-Met, 75 mM KF, 37° C.
Method: as §1, §2

[4] = Chlorination reaction, KF replaced by KCl; type: biochemical
Text: Since FlA^PtaU1 was predicted to be a chlorinase, we evaluated whether it was also active towards SN2-dependent addition of Cl^− onto SAM. […] Previous studies have shown that FlA^Scat can also catalyze the chlorination reaction (Deng et al., 2006). However, this feature requires the simultaneous removal of L-Met or 5′-CIDA, the reaction products, since the reverse dehalogenation reaction is favored. We could observe transhalogenation on 5′-CIDA (i.e. 5′-FDA production in the presence of L-Met and F^−, steps III and I in FIG. 20, respectively; see FIG. 29). Again, FlA^PtaU1 catalytically outperformed all other fluorinases, with a 3-fold higher Vmax value. Although we cannot rule out that FlA^PtaU1 could execute de novo chlorination, it is clear that the 23-residue loop reportedly found in «conventional» fluorinases is not essential for the activity towards F^−.

[5] = type: cell-based, Pseudomonas putida KT2440; details: induction with 15 mM NaF, 20 h, 30° C., LC-MS
[6] = Coupled enzymatic assay, conversion of 5′-FDA into FAld; type: biochemical; details: with isomerase^S. cattleya and aldolase^S. coelicolor
Method: Coupled isomerase and aldolase activity was monitored by following the consumption of DHAP, through NADH reduction at 340 nm (ε=6220 M^−1 cm^−1) via the activity of a Glycerol-3-Phosphate Dehydrogenase (GPDH, Sigma Aldrich). 5′-FDRP was produced by incubating chemically synthetized 5′-FDA (Calero et al. 2020) at 7.43 mM with 0.5 U Nucleoside Phosphorylase (PNP1, Sigma Aldrich) in 10 mM Tris buffer, for 16 h at 30° C. The assay was carried in 200 μl total volume at 30° C. over a time course of 3 hours. Reaction conditions were 50 mM Tris-HCl Buffer pH7.5, 200 μM NADH, 200 μM 5′-FDRP, 1 U GPDH and 10 μg purified of each enzyme. The reduction of NADH was followed at absorbance 340 nm in a Microtiter Plate reader (BioTek, Elx808).
We used this enzymatic assay with cell-free extracts of cultures of P. putida KT2440::FRS-T7RNAP expressing an isomerase and an aldolase from S. cattleya (isoSc, isomerase^S. cattleya) and S. coelicolor (aldSc, aldolase^S. coelicolor), respectively, that have been previously shown that are able to use fluorinated intermediates (Deng et al., 2008), as well as both an isomerase (isoBt, isomerase^B. thuringiensis) and an aldolase (aldBt) from B. thuringiensis that have been previously described to perform the same reaction with the non-fluorinated metabolites (Beaudoin 2018). […]

[7] = Eustaquio et al., 2008; cited from earlier work

| Molecule | Km [1] [µM] | kcat [1] [s⁻¹] | Production of 5′-FDA in vivo [5] | further results |
| --- | --- | --- | --- | --- |
| FIA^PtaU1: fluorinase of Methanosaeta sp. PtaU1.Bin055, SEQ ID NO: 1, accession OPY51785.1 (protein, listed as Methanosaeta sp., Methanosaeta sp. PtaU1.Bin055) MLQNTKNEYKPRDGGGHRPIIGFMSDLGTEDDSVGICKGVMLGLCPDAVIVDISHSMTPWDIDQGSRLIVDLPKFFPNWTTFATTSYRETGTSARSVAIKLPSGHVYVAPNNGLLTRVIEDHGYVEAYEVTTVGAIPAEPEPTWFSRDMVAYPAAAIAAGFPLENVGRPLNDSEIVRADLPRYTQAEDGIIQGIVTTIDRPFGNIWTNIPRRIIENELRIAYGTNIRVVLDNLLVLEVPFMRTFGDVGLKKPMCYINSRGYFSLAYYGGNLADPYNIRRGMPVKIESITR | 6.99 ± 1.06 | 0.00683 ± 0.00017 | could be detected | 5′-FDA synthase activity [2]: one of the top performers; Vmax, fold higher than all other fluorinases [3]: 3 fold; 5′-CIDA accumulation [4]: no 5′-CIDA accumulation could be detected; intracellular 5′-FDA, fold higher with respect to the other three fluorinase genes [5]: 6- to 12 fold |
| FIA^MA37: fluorinase of Streptomyces sp. MA37, SEQ ID NO: 30, accession CDH39444.1 (protein, listed as Streptomyces sp., Streptomyces sp. MA37) MAANGSQRPIIAFMSDLGTTDDSVAQCKGLMHSICPGVTVVDVCHSMTPWDVEEGARYIVDLPRFFPEGTVFATTTYPATGTTTRSVAVRIRQAAKGGARGQWAGSGDGFERADGSYIYIAPNNGLLTTVLEEHGYIEAYEVTSTKVIPANPEPTFYSREMVAIPSAHLAAGFPLAEVGRRLDDSEIVRFHRPAVEISGEALSGVVTAIDHPFGNIWTNIHRTDLEKAGIGQGKHLKIILDDVLPFEAPLTPTFADAGAIGNIAFYLNSRGYLSLARNAASLAYPYNLKAGLKVRVEAR | 4.42 ± 0.58 | 0.00267 ± 0.00017 | could be detected |  |
| DeoD: PNP from E. coli, SEQ ID NO: 15 (protein, listed as Escherichia coli) MATPHINAEMGDFADVVLMPGDPLRAKYIAETFLEDAREVNNVRGMLGFTGTYKGRKISVMGHGMGIPSCSIYTKELITDFGVKKIIRVGSCGAVLPHVKLRDVVIGMGACTDSKVNRIRFKDHDFAAIADFDMVRNAVDAAKALGIDARVGNLFSADLFYSPDGEMFDVMEKYGILGVEMEAAGIYGVAAEFGAKALTICTVSDHIRTHEQTTAAERQTTFNDMIKIALESVLLGDKE |  |  |  | conversion of 5′-FDA into FAld [6]: conversion was higher |
| SalL^Stro: chlorinase from Salinispora tropica CNB-440, accession 2Q6L_A (protein, UniProt A4X3Q0 1-283, looked up) Adenosyl-chloride synthase: MQHNLIAFLSDVGSADEAHALCKGVMYGVAPAATIVDITHDVAPFDVREGALFLADVPHSFPAHTVICAYVYPETGTATHTIAVRNEKGQLLVGPNNGLLSFALDASPAVECHEVLSPDVMNQPVTPTWYGKDIVAACAAHLAAGTDLAAVGPRIDPKQIVRLPYASASEVEGGIRGEVVRIDRAFGNVWTNIPTHLIGSMLQDGERLEVKIEALSDTVLELPFCKTFGEVDEGQPLLYLNSRGRLALGLNQSNFIEKWPVVPGDSITVSPRVPDSNLGPVLG |  |  |  | activity on F^− [7]: inactive on F^− |
